This data set concerns the molecule itself. The data set can be described thus: gel filtration (Superdex 75) at 10 µM, self-association. As to the method:
The oligomeric states of peptides were determined by filtration as described in Traincard et al., 2003. In brief, 500 μl samples were loaded on a SUPERDEX™ 75 HR 10/30 column equilibrated in 50 mM Tris-HCl pH 8.0 containing 200 mM NaCl and 0.1 mM DDM, at a constant flow rate of 0.4 ml/min. The presence of the DDM detergent was added in the equilibrium buffer to minimize the adsorption in the column and to increase the peptide recovery. The column was calibrated in the same equilibrium buffer with blue dextran 2000 (void volume), dithioerythritol (total volume), bovine serum albumin (67 kDa, Rs=35.2 Å), ovalbumine (43 kDa, Rs=27.5 Å), chymotrypsinogen A (25 kDa, Rs=21.1 Å), ribonuclease A (13.7 kDa, Rs=16.4 Å), cytochrome C (12.4 kDa, Rs=17.7 Å) and aprotinin (6.5 KDa, Rs=13.5 Å).
The antennapedia sequence is a protein transduction domain (PTD) which adopts an alpha-helical amphiphatic structure (Prochiantz, 2000, Curr. Opin. Cell Biol.). […] To examine the effect of N-fusion of the antennapedia peptide on the oligomerization properties of the CC2 and the LZ peptides, the present inventors analyzed peptides containing or not containing the antennapedia sequence at their N-terminus by gel filtration. […]
For orientation: In gel filtration, larger molecules generally elute earlier.

B1: LZ (WT) (peptide)
peptide: Ac-LKAQADIYKADFQAERHAREKLVEKKEYLQEQLEQLQREFNKL-NH2
notes: Forms a dimer at 10 uM in gel filtration; also called LZ peptide; LZ wild type
For the protein B1, the binding result is “binds”.

Values taken from patent publication US20080207517A1 (INSTITUT PASTEUR, published 2008).
